According to US20150315248:

Biological target: gelatin substrate

B1: Dif153 (CD2830, hypothetical protein, zinc metallopeptidase), recombinant (protein)
chain: DSTTIQQNKDTLSQIVVFPTGNYDKNEANAMVNRLANIDGKYLNALKQNNLKIKLLSGKLTDEKEYAYLKGVVPKGWEGTGKTWDDVPGLGGSTVALRIGFSNKGKGHDAINLELHETAHAIDHIVLNDISKSAQFKQIFAKEGRSLGNVNYLGVYPEEFFAESFAYYYLNQDTNSKLKSACPQTYSFLQNLAK
  fluorimetric analysis of gelatin cleavage: the recombinant protein has a weak gelatinase/collagenase activity in the presence of zinc, but not in the presence of nickel and copper or in the apo form
